B1: full-length, C-terminal, Flag-tagged human Lnp [human] / Myc-ATL3 [human] (parent complex)
chain 1: MGGLFSRWRTKPSTVEVLESIDKEIQALEEFREKNQRLQKLWVGRLILYSSVLYLFTCLIVYLWYLPDEFTARLAMTLPFFAFPLIIWSIRTVIIFFFSKRTERNNEALDDLKSQRKKILEEVMEKETYKTAKLILERFDPDSKKAKECEPPSAGAAVTARPGQEIRQRTAAQRNLSPTPASPNQGPPPQVPVSPGPPKDSSAPGGPPERTVTPALSSNVLPRHLGSPATSVPGMGLHPPGPPLARPILPRERGALDRIVEYLVGDGPQNRYALICQQCFSHNGMALKEEFEYIAFRCAYCFFLNPARKTRPQAPRLPEFSFEKRQVVEGSSSVGPLPSGSVLSSDNQFNEESLEHDVLDDNTEQTDDKIPATEQTNQVIEKASDSEEPEEKQETENEEASVIETNSTVPGADSIPDPELSGESLTAE
chain 2: MLSPQRVAAAASRGADDAMESSKPGPVQVVLVQKDQHSFELDEKALASILLQDHIRDLDVVVVSVAGAFRKGKSFILDFMLRYLYSQKESGHSNWLGDPEEPLTGFSWRGGSDPETTGIQIWSEVFTVEKPGGKKVAVVLMDTQGAFDSQSTVKDCATIFALSTMTSSVQIYNLSQNIQEDDLQQLQLFTEYGRLAMDEIFQKPFQTLMFLVRDWSFPYEYSYGLQGGMAFLDKRLQVKEHQHEEIQNVRNHIHSCFSDVTCFLLPHPGLQVATSPDFDGKLKDIAGEFKEQLQALIPYVLNPSKLMEKEINGSKVTCRGLLEYFKAYIKIYQGEDLPHPKSMLQATAEANNLAAAASAKDIYYNNMEEVCGGEKPYLSPDILEEKHCEFKQLALDHFKKTKKMGGKDFSFRYQQELEEEIKELYENFCKHNGSKNVFSTFRTPAVLFTGIVALYIASGLTGFIGLEVVAQLFNCMVGLLLIALLTWGYIRYSGQYRELGGAIDFGAAYVLEQASSHIGNSTQATVRDAVVGRPSMDKKAQ

This is an account of results in publication PMC6588657 (2018).

In the test the parent is B1. Nature of the test: co-immunoprecipitation; COS-7 cell lysates containing 1% Triton X-100; anti-Flag antibody-conjugated agarose; band quantification by Image J; parent: 1.
chain 1 MGGLFSRWRTKPSTVEVLESIDKEDQADEEFREKNQRLQKLWVGRLILYSSVLYLFTCLIVYLWYLPDEFTARLAMTLPFFAFPLIIWSIRTVIIFFFSKRTERNNEALDDLKSQRKKILEEVMEKETYKTAKLILERFDPDSKKAKECEPPSAGAAVTARPGQEIRQRTAAQRNLSPTPASPNQGPPPQVPVSPGPPKDSSAPGGPPERTVTPALSSNVLPRHLGSPATSVPGMGLHPPGPPLARPILPRERGALDRIVEYLVGDGPQNRYALICQQCFSHNGMALKEEFEYIAFRCAYCFFLNPARKTRPQAPRLPEFSFEKRQVVEGSSSVGPLPSGSVLSSDNQFNEESLEHDVLDDNTEQTDDKIPATEQTNQVIEKASDSEEPEEKQETENEEASVIETNSTVPGADSIPDPELSGESLTAE [chain 1 I25D, chain 1 L28D]: the ratio to parent amounted to 0.26. As to chain 1 MGGLFSRWRTKPSTVEVLESIDKEDQALEEFREKNQRLQKLWVGRLILYSSVLYLFTCLIVYLWYLPDEFTARLAMTLPFFAFPLIIWSIRTVIIFFFSKRTERNNEALDDLKSQRKKILEEVMEKETYKTAKLILERFDPDSKKAKECEPPSAGAAVTARPGQEIRQRTAAQRNLSPTPASPNQGPPPQVPVSPGPPKDSSAPGGPPERTVTPALSSNVLPRHLGSPATSVPGMGLHPPGPPLARPILPRERGALDRIVEYLVGDGPQNRYALICQQCFSHNGMALKEEFEYIAFRCAYCFFLNPARKTRPQAPRLPEFSFEKRQVVEGSSSVGPLPSGSVLSSDNQFNEESLEHDVLDDNTEQTDDKIPATEQTNQVIEKASDSEEPEEKQETENEEASVIETNSTVPGADSIPDPELSGESLTAE [chain 1 I25D], the ratio to parent came to 0.32. For the variant chain 1 MGGLFSRWRTKPSTVEVLESIDKEIQADEEFREKNQRLQKLWVGRLILYSSVLYLFTCLIVYLWYLPDEFTARLAMTLPFFAFPLIIWSIRTVIIFFFSKRTERNNEALDDLKSQRKKILEEVMEKETYKTAKLILERFDPDSKKAKECEPPSAGAAVTARPGQEIRQRTAAQRNLSPTPASPNQGPPPQVPVSPGPPKDSSAPGGPPERTVTPALSSNVLPRHLGSPATSVPGMGLHPPGPPLARPILPRERGALDRIVEYLVGDGPQNRYALICQQCFSHNGMALKEEFEYIAFRCAYCFFLNPARKTRPQAPRLPEFSFEKRQVVEGSSSVGPLPSGSVLSSDNQFNEESLEHDVLDDNTEQTDDKIPATEQTNQVIEKASDSEEPEEKQETENEEASVIETNSTVPGADSIPDPELSGESLTAE [chain 1 L28D], the ratio to parent was found to be 0.34.
